Columns and labels:
[1] = target: TnpA^IS1535 single-cysteine mutant Cys162 (three native cysteines replaced with serines) (Mycobacterium tuberculosis); test: cross-linking; disulfide cross-linking of cysteine-substituted TnpA^IS1535: oxidation with 0.2 mM diamide at 4°C overnight in 25 mM HEPES pH 7.5, 1 M Na acetate, 20% glycerol; non-reducing SDS-PAGE
[2] = target: TnpA^IS1535 C-terminal domain (CTD), residues 51-193 (Mycobacterium tuberculosis); test: crystal structure; TnpA^IS1535 CTD (51-193), hanging drop, 0.3 M sodium acetate pH 5.0, 1 mM TCEP mixed with 0.2 M sodium citrate + 20% PEG3350; 2.5 Å; one dimer in the asymmetric unit

“TnpA^IS1535 single-cysteine mutant Cys162 (three native cysteines replaced with serines) (enzyme)” showed a percent disulfide-linked dimers [1] of 40%.
Work on “TnpA^IS1535 C-terminal domain (CTD), residues 51-193 (domain or fragment)” yielded a stoichiometry N [2] of 2.
